The source of these data is patent US20230038883A1, “SPECIFIC HOST FACTOR OF HEPATITIS B VIRUS INFECTION, AND USE THEREOF” (priority 2020, published 2023).

Assay [1] deals with polypeptide containing amino acids 69-108 of preS1 (peptide^69-108) (hepatitis B virus). The assay can be described thus: ForteBio Octet; sensorgrams at 200, 100, 50 and 25 µg/mL.
Assay [2] shares this target. The assay can be described thus: ForteBio Octet (BLI), biotin-labeled peptide.
For the next assay, the system named is NTCP mRNA. Kind of assay: NTCP mRNA level under CREBH overexpression. The format is cell-based. Particulars: overexpression in HepG2-NTCP. An excerpt:
NTCP is a key receptor in HBV infection and can directly bind to the PreS1 region on the virus. Many factors capable of affecting HBV infection may indirectly affect HBV infection by affecting the expression level or cellular localization of NTCP. In order to detect whether CREBH enhances HBV infection by affecting NTCP, changes in NTCP mRNA level under the condition of overexpressing CREBH was first detected.

Another assay deals with hepatitis D virus (HDV). The assay can be described thus: HDV infection. The class given is cell-based. An excerpt: This phenomenon can be explained and discussed from the following aspects. First, the present invention finds that HDV infection is more dependent on the expression of NTCP on the cell membrane than HBV infection, and HDV infection can occur more easily at a low PEG concentration. Although HDV and HBV have the same viral outer membrane, HDV can be assembled in the absence of L protein. […] Second, SCARF2 contains, at its C-terminus, a signal that can lead to its localization to the nuclear membrane, and a mutant with deletion of the C-terminal Proline-rich domain cannot enhance the infection.

The test system of assay [3] is HBV. Kind of assay: cDNA library screening by HBV infection of HepG2-NTCP cells in 1% PEG. The format is cell-based. The protocol:
The cDNA library was prepared by packaging lentivirus, with HepG2-NTCP cells expressing the cDNA clones being packaged therein. After 24 hours, infection was conducted with HBV at a same tier in the presence of 1% PEG. Culture supernatant was collected every 2 days, and was tested with HBeAg and HBsAg kits.

The next assay deals with SCARF2 gene. The assay can be described thus: SCARF2 expression after transduction of CREBH and truncated forms (mRNA sequencing, quantitative PCR). The format is cell-based. Particulars: HepG2-NTCP cells transduced. An excerpt: Since the results of the infection occurred after the transduction of truncated forms of CREBH indicate that the transcriptional activation function of CREBH is necessary for enhancement of the infection, and the shortest functional truncated form CREBH-122-318 is localized on the nucleus, it is inferred that it is by activating a downstream gene that CREBH enhances HBV entry. In order to more accurately determine the downstream major gene, HepG2-NTCP cells transduced with CREBH, CREBH-122, CREBH-307, CREBH-122-318, CREBH-211-318, PWPI-B, and PMM were selected and used for transcriptome sequencing experiments. Meanwhile, CREBH siRNA-2 was selected and used to knock down CREBH in HepG2-NTCP cells. siNC was used as a negative control. Changes in transcriptomes were detected.
The same conclusion was also made from subsequent experiments using quantitative PCR, and the expression levels of SCARF2 were completely consistent with the enhancement effects of CREBH and its various truncated forms on HBV infection observed in the previous text.

The subject of the next assay is APOA4 gene. Kind of assay: relative expression of APOA4 after transduction of truncated forms into HepG2-NTCP cells. The format is cell-based. The protocol:
In order to detect whether each truncated form still had transcriptional activation ability, experiments were conducted by using the activation of APOA4 gene reported in the literature as an indicator of the transcriptional activation ability of CREBH. After the truncated forms were transduced into HepG2-NTCP cells, relative expression of APOA4 was detected. […] CREBH-C also had relatively high activation efficiency, which however was about ⅓ of the activation efficiency of the full-length CREBH.

Assay [4] concerns HBV. Kind of assay: HBV infection of HepG2-NTCP cells transduced with CREBH and truncated forms (ELISA, HBcAg staining). The format is cell-based. To be noted: transduced before infection; for HBV infection efficiency (ELISA): 1% PEG and 5% PEG, compared with PWPI-B empty control. The protocol: HepG2-NTCP cells were transduced with lentivirus embedded with CREBH and truncated forms thereof. After 24 hours, the cells were re-seeded in a culture plate, and the culture medium was changed to PMM. After 24 hours, the cells were infected with HBV in the presence of 1% PEG and 5% PEG respectively. Supernatant was collected every 2 days and assayed using an ELISA kit.
HBcAg staining was also performed in the experiments, and results were consistent with the ELISA results. […] It was thus speculated that these two truncated forms might have exerted a dominant-negative effect.
For orientation: In an ELISA, binding on a coated surface is turned into a signal by an enzyme label.

The test system of assay [5] is HBV. The assay can be described thus: HBV infection of HepG2-NTCP cells overexpressing SCARF2. The format is cell-based. The protocol:
FIGS. 8A, 8B, and 8C are schematic diagrams showing the effects of transduction of SCARF2 on infection in Example 6. (FIG. 8A) HepG2-NTCP cells were transduced with SCARF2, CREBH-122, or PWPI, and then infected with HBV in the presence of 1% PEG. (FIG. 8B) HepG2-NTCP cells were transduced with SCARF2, CREBH-122, or PWPI, and then infected with HBV in the presence of 5% PEG. (FIG. 8C) Nuclear and cytoplasmic fractions of the cells at 0 hour, 6 hours, 24 hours, and 72 hours after infection were isolated, and content of HBV DNA in each of the fractions was detected by southern-blot.
In the present invention, SCARF2 was first overexpressed in HepG2-NTCP cell line to test the effects of SCARF2 on HBV infection. […] Meanwhile, from HepG2-NTCP cell line stably expressing SCARF2, HBV DNA was isolated for analysis from the cytoplasm and the nucleus at different time points of HBV infection.

Where [6] appears, read: HepG2-NTCP stably expressing SCARF2, southern-blot.

As usually defined, the koff is the first-order rate constant of dissociation. Low values mean a long-lived complex, high ones a short-lived complex. As a reminder, the kon is the rate constant with which the complex forms. In general, Kd refers to a measure of binding affinity in units of concentration.

Chain of polypeptide containing amino acids 69-108 of preS1 (peptide^69-108) (hepatitis B virus) (P03138 69-108): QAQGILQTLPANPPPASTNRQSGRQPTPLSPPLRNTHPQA

For the molecule “SCARF2 EGF4-6 protein (from UniProt Q96GP6 183-270) (Fc fusion)”, in assay [1], the koff was found to be 0.000289 s⁻¹ and the kon was 4970 M⁻¹ s⁻¹. For the same molecule, in assay [2], the Kd is 0.058 µM.

B1: CREBH: cAMP-responsive element-binding protein, hepatocyte specific; SEQ ID NO:1; expressed by lentiviral transduction (protein, listed as Homo sapiens)
chain: MNTDLAAGKMASAACSMDPIDSFELLDLLFDRQDGILRHVELGEGWGHVKDQQVLPNPDSDDFLSSILGSGDSLPSSPLWSPEGSDSGISEDLPSDPQDTPPRSGPATSPAGCHPAQPGKGPCLSYHPGNSCSTTTPGPVIQVPEASVTIDLEMWSPGGRICAEKPADPVDLSPRCNLTVKDLLLSGSSGDLQQHHLGASYLLRPGAGHCQELVLTEDEKKLLAKEGITLPTQLPLTKYEERVLKKIRRKIRNKQSAQESRKKKKEYIDGLETRMSACTAQNQELQRKVLHLEKQNLSLLEQLKKLQAIVVQSTSKSAQTGTCVAVLLLSFALIILPSISPFGPNKTESPGDFAPVRVFSRTLHNDAASRVAADAVPGSEAPGPRPEADTTREESPGSPGADWGFQDTANLTNSTEELDNATLVLRNATEGLGQVALLDWVAPGPSTGSGRAGLEAAGDEL
For B1, the “NTCP mRNA level” value in the assay with NTCP mRNA was “slightly down-regulated”. Further, in the assay on hepatitis D virus (HDV), the HDV infection entry is “neither of CREBH and SCARF2 can enhance”. Besides, the “number of HBcAg-positive cells” value in the assay with HBV [3] (HBcAg staining) is reported as “remarkably increases”. For the same molecule, the “HBV infection (HBeAg, HBsAg in supernatant)” value with HBV [3] (HepG2-NTCP cells expressing cDNA clone, 1% PEG) is reported as “remarkably enhances HBV infection”. In the assay with SCARF2 gene, the “expression of SCARF2” value is recorded as “can up-regulate the expression of SCARF2 gene, but not to a very significant level”. Also, in the assay on APOA4 gene, the “activation of APOA4 gene (relative expression)” value is “strongest activation effect”. Further, in the assay on HBV [4], the “HBV infection efficiency (ELISA)” value is “increase the infection efficiency”.

B2: CREBH-211-318: truncated form of CREBH, residues 211-318, SEQ ID NO:4, expresses only the bZIP domain (protein)
chain: QELVLTEDEKKLLAKEGITLPTQLPLTKYEERVLKKIRRKIRNKQSAQESRKKKKEYIDGLETRMSACTAQNQELQRKVLHLEKQNLSLLEQLKKLQAIVVQSTSKSA
For the molecule B2, the “expression of SCARF2” value in the assay on SCARF2 gene is recorded as “does not lead to a change in SCARF2 expression”. The “HBV infection (HBcAg staining, consistent with ELISA)” value in the assay on HBV [4] is given as “to some certain extent inhibited the infection”.

B3: SCARF2: Scavenger receptor family F protein, SEQ ID NO:8, overexpressed in HepG2-NTCP cells (protein, listed as Homo sapiens)
chain: MEGAGPRGAGPARRRGAGGPPSPLLPSLLLLLLLWMLPDTVAPQELNPRGRNVCRAPGSQVPTCCAGWRQQGDECGIAVCEGNSTCSENEVCVRPGECRCRHGYFGANCDTKCPRQFWGPDCKELCSCHPHGQCEDVTGQCTCHARRWGARCEHACQCQHGTCHPRSGACRCEPGWWGAQCASACYCSATSRCDPQTGACLCHAGWWGRSCNNQCACNSSPCEQQSGRCQCRERTFGARCDRYCQCFRGRCHPVDGTCACEPGYRGKYCREPCPAGFYGLGCRRRCGQCKGQQPCTVAEGRCLTCEPGWNGTKCDQPCATGFYGEGCSHRCPPCRDGHACNHVTGKCTRCNAGWIGDRCETKCSNGTYGEDCAFVCADCGSGHCDFQSGRCLCSPGVHGPHCNVTCPPGLHGADCAQACSCHEDTCDPVTGACHLETNQRKGVMGAGALLVLLVCLLLSLLGCCCACRGKDPTRRPRPRRELSLGRKKAPHRLCGRFSRISMKLPRIPLRRQKLPKVVVAHHDLDNTLNCSFLEPPSGLEQPSPSWSSRASFSSFDTTDEGPVYCVPHEEAPAESRDPEVPTVPAEAPAPSPVPLTTPASAEEAIPLPASSDSERSASSVEGPGGALYARVARREARPARARGEIGGLSLSPSPERRKPPPPDPATKPKVSWIHGKHSAAAAGRAPSPPPPGSEAAPSPSKRKRTPSDKSAHTVEHGSPRTRDPTPRPPGLPEEATALAAPSPPRARARGRGPGLLEPTDAGGPPRSAPEAASMLAAELRGKTRSLGRAEVALGAQGPREKPAPPQKAKRSVPPASPARAPPATETPGPEKAATDLPAPETPRKKTPIQKPPRKKSREAAGELGRAGAPTL
Turning to B3, the HDV infection result with hepatitis D virus (HDV) is “neither of CREBH and SCARF2 can enhance”. Also, the HBV infection entry in the assay with HBV [5] (1% PEG or 5% PEG) was “can enhance HBV infection”. In the assay on HBV [5] (setting [6]), the “HBV DNA in fractions of the cytoplasm” value is recorded as “slightly increased”; the “rcDNA and cccDNA in fractions of the nucleus” value is recorded as “significantly increased”.

B4: CREBH-122-318: truncated form of CREBH, residues 122-318, SEQ ID NO:3 (protein)
chain: MCLSYHPGNSCSTTTPGPVIQVPEASVTIDLEMWSPGGRICAEKPADPVDLSPRCNLTVKDLLLSGSSGDLQQHHLGASYLLRPGAGHCQELVLTEDEKKLLAKEGITLPTQLPLTKYEERVLKKIRRKIRNKQSAQESRKKKKEYIDGLETRMSACTAQNQELQRKVLHLEKQNLSLLEQLKKLQAIVVQSTSKSA
Turning to B4, the “NTCP mRNA level” value in the assay on NTCP mRNA was “slightly down-regulated”. The “expression of SCARF2” value in the assay on SCARF2 gene is listed as “significantly up-regulates SCARF2”. In the assay with APOA4 gene, the “activation of APOA4 gene (relative expression)” value was “capable of activating APOA4 gene to some extent”. Besides, the “HBV infection efficiency (ELISA)” value with HBV [4] is given as “increase the infection efficiency”.
